Assay results from publication PMC9249759, “Analysis of diverse double-strand break synapsis with Polλ reveals basis for unique substrate specificity in nonhomologous end-joining”.

What was measured:
[1] = biological target: T1, DNA polymerase lambda catalytic domain with brooch motif (Homo sapiens, UniProt Q9UGP5 235-575); assay: X-ray crystallography, 1.65 A; dUMPNPP, Ca2+/Mg2+ (metal A), Mg2+ (metal B); pre-catalytic; Crystals only: DNA with protein on ice or RT, then 0.91 mM dUMPNPP; SSB cacodylate pH 6.5/KCl/Mg acetate/PEG 8000 RT; DSB.A tripotassium citrate/PEG 3350 4 C; DSB.B Na sulfate/PEG 3350 RT; DSB.C cacodylate pH 6.5/ammonium sulfate/PEG 8K 4 C; DSB.D cacodylate pH 6.5/Ca acetate/PEG 8K 4 C, soaked in Mg acetate; details: protein: recombinant; tags: GST tag removed by TEV; two duplexes: blunt GCACTG:CAGTGC and CGGCA:GCCG (3' overhang 1 nt); no microhomology
T1 sequence: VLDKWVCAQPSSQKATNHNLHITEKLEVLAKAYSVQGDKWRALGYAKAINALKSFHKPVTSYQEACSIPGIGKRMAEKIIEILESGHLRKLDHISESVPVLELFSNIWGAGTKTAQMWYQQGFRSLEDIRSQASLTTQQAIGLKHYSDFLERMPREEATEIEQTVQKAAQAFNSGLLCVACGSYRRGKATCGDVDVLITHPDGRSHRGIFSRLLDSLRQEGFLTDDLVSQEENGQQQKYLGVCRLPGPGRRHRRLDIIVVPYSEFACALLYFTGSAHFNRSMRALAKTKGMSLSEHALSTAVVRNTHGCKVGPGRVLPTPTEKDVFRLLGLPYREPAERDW

[2] = biological target: T1, DNA polymerase lambda catalytic domain …; assay: X-ray crystallography, 1.8 A; dUMPNPP, Na+ (metal A), Mg2+ (metal B); Crystals only: DNA with protein on ice or RT, then 0.91 mM dUMPNPP; SSB cacodylate pH 6.5/KCl/Mg acetate/PEG 8000 RT; DSB.A tripotassium citrate/PEG 3350 4 C; DSB.B Na sulfate/PEG 3350 RT; DSB.C cacodylate pH 6.5/ammonium sulfate/PEG 8K 4 C; DSB.D cacodylate pH 6.5/Ca acetate/PEG 8K 4 C, soaked in Mg acetate; details: protein: recombinant; tags: GST tag removed by TEV; two duplexes: ACTG:CAGTGC (3' overhang 2 nt) and CGGCAGC:GCCG (3' overhang 3 nt); 2-nt microhomology, 1-nt gap
[3] = biological target: T1, DNA polymerase lambda catalytic domain …; assay: X-ray crystallography, 2 A; dUMPNPP, Mg2+; Crystals only: DNA with protein on ice or RT, then 0.91 mM dUMPNPP; SSB cacodylate pH 6.5/KCl/Mg acetate/PEG 8000 RT; DSB.A tripotassium citrate/PEG 3350 4 C; DSB.B Na sulfate/PEG 3350 RT; DSB.C cacodylate pH 6.5/ammonium sulfate/PEG 8K 4 C; DSB.D cacodylate pH 6.5/Ca acetate/PEG 8K 4 C, soaked in Mg acetate; details: protein: recombinant; tags: GST tag removed by TEV; two duplexes: TACTG:CAGTGC (G:T mismatch at -2, 3' overhang 1 nt) and CGGCAG:GCCG (3' overhang 2 nt); 1-nt microhomology
[4] = biological target: T2, DNA polymerase lambda catalytic domain with brooch motif (DSB.B crystals) (Homo sapiens, UniProt Q9UGP5 233-575); assay: X-ray crystallography, 2.25 A; dUMPNPP, Mg2+ (metal B), Na+ in HhH2 site; Crystals only: DNA with protein on ice or RT, then 0.91 mM dUMPNPP; SSB cacodylate pH 6.5/KCl/Mg acetate/PEG 8000 RT; DSB.A tripotassium citrate/PEG 3350 4 C; DSB.B Na sulfate/PEG 3350 RT; DSB.C cacodylate pH 6.5/ammonium sulfate/PEG 8K 4 C; DSB.D cacodylate pH 6.5/Ca acetate/PEG 8K 4 C, soaked in Mg acetate; details: protein: recombinant; tags: GST tag removed by TEV; single-stranded upstream primer plus duplex CGGCAGC:GCCG (3' overhang 3 nt); 2-nt microhomology; primer 5' end mispairs with same primer of neighbouring complex
T2 sequence: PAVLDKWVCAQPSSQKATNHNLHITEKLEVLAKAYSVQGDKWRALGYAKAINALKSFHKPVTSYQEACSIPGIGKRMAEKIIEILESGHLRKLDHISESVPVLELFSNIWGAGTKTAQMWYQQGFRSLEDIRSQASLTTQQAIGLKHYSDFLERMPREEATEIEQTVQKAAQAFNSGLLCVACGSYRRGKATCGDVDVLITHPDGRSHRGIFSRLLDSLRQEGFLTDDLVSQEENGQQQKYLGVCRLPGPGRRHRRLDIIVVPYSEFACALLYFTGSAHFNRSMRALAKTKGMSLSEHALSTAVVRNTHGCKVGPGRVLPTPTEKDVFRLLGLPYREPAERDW

[5] = biological target: T1, DNA polymerase lambda catalytic domain …; assay: X-ray crystallography, 1.57 A; dUMPNPP, Mg2+; Crystals only: DNA with protein on ice or RT, then 0.91 mM dUMPNPP; SSB cacodylate pH 6.5/KCl/Mg acetate/PEG 8000 RT; DSB.A tripotassium citrate/PEG 3350 4 C; DSB.B Na sulfate/PEG 3350 RT; DSB.C cacodylate pH 6.5/ammonium sulfate/PEG 8K 4 C; DSB.D cacodylate pH 6.5/Ca acetate/PEG 8K 4 C, soaked in Mg acetate; details: protein: recombinant; tags: GST tag removed by TEV; 1-nt gap; template with upstream primer and downstream primer

B1: DSB.D blunt-ended (dsDNA)
DNA 1: GCACTG
DNA 2: CAGTGC
DNA 3: CGGCA
DNA 4: GCCG
modifications: 5'-phosphate on GCCG
[1]
  binding result: binds

B2: DSB.A complementary (dsDNA)
DNA 1: ACTG
DNA 2: CAGTGC
DNA 3: CGGCAGC
DNA 4: GCCG
modifications: 5'-phosphate on GCCG
[2]
  binding result: binds

B3: DSB.C mismatched (dsDNA)
DNA 1: TACTG
DNA 2: CAGTGC
DNA 3: CGGCAG
DNA 4: GCCG
modifications: 5'-phosphate on GCCG
[3]
  binding result: binds

B4: DSB.B without upstream template (mixed)
DNA: CAGTGC
? 1: CGGCAGC
? 2: GCCG
modifications: 5'-phosphate on GCCG
[4]
  binding result: binds

B5: 1nt-gapped SSB (dsDNA)
DNA 1: CGGCAGTACTG
DNA 2: CAGTAC
DNA 3: GCCG
modifications: 5'-phosphate on GCCG
[5]
  binding result: binds
